Residue numbers refer to the chain shown, from its start. Numbers in names are those of the source. No end group written: not given here. TMR = tetramethyl rhodamine dye
T1: Rb^P S474R (human, UniProt P06400 380-788, S474R)
T1 construct: also called variant 13
T1 sequence (looked up): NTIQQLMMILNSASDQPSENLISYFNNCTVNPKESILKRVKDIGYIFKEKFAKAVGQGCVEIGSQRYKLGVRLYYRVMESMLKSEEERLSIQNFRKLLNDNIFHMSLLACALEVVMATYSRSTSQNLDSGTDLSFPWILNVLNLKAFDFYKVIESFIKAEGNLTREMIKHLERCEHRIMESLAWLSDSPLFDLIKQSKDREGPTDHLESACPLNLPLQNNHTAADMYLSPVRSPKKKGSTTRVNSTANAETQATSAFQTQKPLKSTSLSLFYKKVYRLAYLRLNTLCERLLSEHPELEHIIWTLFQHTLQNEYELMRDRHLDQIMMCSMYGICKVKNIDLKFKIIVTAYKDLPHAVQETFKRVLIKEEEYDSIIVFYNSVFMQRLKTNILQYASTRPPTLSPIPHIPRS

T2: Rb^P E533K (human, UniProt P06400 380-788, E533K)
T2 construct: also called variant 22
T2 sequence (looked up): T1 sequence (looked up) with R95S, E154K

T3: Rb^P R621S (human, UniProt P06400 380-788, R621S)
T3 construct: also called variant 44
T3 sequence (looked up): T1 sequence (looked up) with R95S, R242S

T4: Rb^P R668C (human, UniProt P06400 380-788, R668C)
T4 construct: also called variant 51
T4 sequence (looked up): T1 sequence (looked up) with R95S, R289C

T5: Rb^P Q444L (human, UniProt P06400 380-788, Q444L)
T5 construct: also called variant 3
T5 sequence (looked up): T1 sequence (looked up) with Q65L, R95S

B1: TMR-E2F1^TD, peptide of the E2F1 transactivation domain (peptide)
peptide: {TMR}-GEGIRDLFDCDFGDLTPLD
notes: also called E2F^TD; source: synthetic peptide, bought: GenScript
B2: TMR-E7^LxCxE, LxCxE peptide of the E7 oncoprotein from HPV (peptide)
peptide: DLYCYEQLN
modifications: also: TMR label, position not given here
notes: source: synthetic peptide, bought: GenScript

How the values were obtained:
Test in all cases: fluorescence polarisation; 25 °C; unlabeled Rb^P titrated against 1.5 nM TMR-E2F1^TD or 7.5 nM TMR-E7^LxCxE; 25 mM Tris pH 8.0, 200 mM NaCl, 1 mM DTT, 0.1% Tween-20; 2 min incubation; quadratic fit; apparent Kd for the variants, Kd for WT
Conditions in all cases: both partners purified
Rb^P S474R = target: T1, Rb^P S474R
Rb^P E533K = target: T2, Rb^P E533K
Rb^P R621S = target: T3, Rb^P R621S
Rb^P R668C = target: T4, Rb^P R668C
Rb^P Q444L = target: T5, Rb^P Q444L

Row | Binder | Kd (Rb^P S474R) | Kd (Rb^P E533K) | Kd (Rb^P R621S) | Kd (Rb^P R668C) | Kd (Rb^P Q444L)
1 | B1 | 365 nM | 810 nM | 21 nM | 12 nM | 14 nM
2 | B2 | 5 nM | 6 nM | 6 nM | 3 nM | 4 nM

— article PMC11931385, “Structural and functional analysis of cancer-associated missense variants in the retinoblastoma protein pocket domain” (The Journal of Biological Chemistry, 2025)
